Laboratory results from patent US20220249649A1 (ECOLE POLYTECHNIQUE FEDERALE DE LAUSANNE, published 2022).

Biological target: T1, D25 antibody (IgG)
T1 construct: RSVF site 0 neutralising antibody, human IgG1 vector; The IgG was immobilised on the SPR chip; PDB 4JHW is cited; also called nAb D25
Test: not stated (comparison value, FIG. 18 cited)

B1: prefusion stabilized RSVF (sc9-10 DS-Cav1 A149C Y458C S46G E92D S215P K465Q variant, DS2) (other)
chain: QNITEEFYQSTCSAVSKGYLGALRTGWYTSVITIELSNIKENKCNGTDAKVKLIKQELDKYKNAVTDLQLLMQSTPPTNNGSGSAICSGVAVCKVLHLEGEVNKIKSALLSTNKAVVSLSNGVSVLTFKVLDLKNYIDKQLLPILNKQSCSIPNIETVIEFQQKNNRLLEITREFSVNAGVTTPVSTYMLTNSELLSLINDMPITNDQKKLMSNNVQIVRQQSYSIMCIIKEEVLAYVVQLPLYGVIDTPCWKLHTSPLCTTNTKEGSNICLTRTDRGWYCDNAGSVSFFPQAETCKVQSNRVFCDTMNSLTLPSEINLCNVDIFNPKYDCKIMTSKTDVSSSVITSLGAIVSCYGKTKCTASNKNRGIIKTFSNGCDYVSNKGMDTVSVGNTLYCVNKQEGQSLYVKGEPIINFYDPLVFPSDEFDASISQVNEKINQSLAFIRKSDELL
notes: also called preRSVF; prefusion RSVF
Kd: 150 µM
